Data: patent US20230055408A1 (JIANGSU HENGRUI MEDICINE, published 2023)

T1: human CEA protein on the cell surface (human, UniProt P06731 35-685)
T1 construct: whole, on cells; also called CEACAM-5; CD66e
T1 sequence (looked up): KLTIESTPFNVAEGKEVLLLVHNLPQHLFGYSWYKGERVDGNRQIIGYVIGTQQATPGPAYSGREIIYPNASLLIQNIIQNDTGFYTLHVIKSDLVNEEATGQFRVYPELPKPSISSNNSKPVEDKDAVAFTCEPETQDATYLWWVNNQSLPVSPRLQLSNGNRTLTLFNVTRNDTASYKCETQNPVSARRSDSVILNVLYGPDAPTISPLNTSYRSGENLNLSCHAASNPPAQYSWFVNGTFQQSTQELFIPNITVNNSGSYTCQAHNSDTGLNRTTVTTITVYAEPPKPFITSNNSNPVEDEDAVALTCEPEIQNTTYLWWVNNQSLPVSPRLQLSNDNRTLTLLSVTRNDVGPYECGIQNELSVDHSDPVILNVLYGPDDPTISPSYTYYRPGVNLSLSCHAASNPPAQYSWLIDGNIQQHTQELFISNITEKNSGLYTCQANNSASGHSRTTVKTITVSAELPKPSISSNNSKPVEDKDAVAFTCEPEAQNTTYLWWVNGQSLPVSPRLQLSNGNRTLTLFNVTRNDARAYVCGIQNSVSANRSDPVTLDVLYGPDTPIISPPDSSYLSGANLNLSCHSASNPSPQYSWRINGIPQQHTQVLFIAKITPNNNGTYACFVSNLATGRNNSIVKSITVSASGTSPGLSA

T2: monkey CEA expressed on CHO cell surface (cynomolgus monkey)
T2 construct: also called cynoCEA-CHO; monkey CEA proteins on the cell surface
T2 chain: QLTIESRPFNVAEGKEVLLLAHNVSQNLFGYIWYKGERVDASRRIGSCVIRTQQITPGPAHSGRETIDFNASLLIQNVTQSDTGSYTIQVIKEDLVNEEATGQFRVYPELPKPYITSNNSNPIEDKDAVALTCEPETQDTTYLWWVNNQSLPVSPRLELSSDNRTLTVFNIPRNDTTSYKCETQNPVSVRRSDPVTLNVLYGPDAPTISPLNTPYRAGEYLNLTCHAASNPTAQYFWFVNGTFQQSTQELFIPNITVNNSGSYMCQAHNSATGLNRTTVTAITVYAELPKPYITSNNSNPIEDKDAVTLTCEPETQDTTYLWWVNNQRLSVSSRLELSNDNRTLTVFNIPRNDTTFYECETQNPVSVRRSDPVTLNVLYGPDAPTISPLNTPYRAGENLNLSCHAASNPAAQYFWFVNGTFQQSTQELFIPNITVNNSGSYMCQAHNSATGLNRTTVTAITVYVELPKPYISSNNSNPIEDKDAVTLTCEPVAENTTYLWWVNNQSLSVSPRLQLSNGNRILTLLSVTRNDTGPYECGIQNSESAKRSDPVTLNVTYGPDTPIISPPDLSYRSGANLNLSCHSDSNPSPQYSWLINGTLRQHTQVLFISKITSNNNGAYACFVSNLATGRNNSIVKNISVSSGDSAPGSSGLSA


Experiments:
[1] = target: T1, human CEA protein on the cell surface; assay: FACS, MKN45 cells
Experimental: (§1) In order to detect the binding of the antibody to the CEA protein on the cell surface, the binding activity of the antibody was determined by FACS using cells expressing CEA on the cell surface. Cells were harvested and centrifuged at 400 g at 4° C. for 5 min. Pre-cooled PBS containing FBS at final concentration 10% was added, and the mixture was centrifuged at 400 g at 4° C. for 5 min; the procedures were repeated twice. The cells were seeded into a 96-well plate at 10⁵ cells/well, and 100 μL of gradient diluted antibody solution was added to each well. The plate was incubated at 4° C. for 60 min and centrifuged, and the supernatant was removed. 250 μL of pre-cooled PBS containing FBS at final concentration 10% was added to each well to resuspend the cells, and the suspension was centrifuged at 400 g at 4° C. for 5 min, followed by the removal of the supernatant; the procedures were repeated twice. 50 μL of 1:200 diluted secondary antibody Alexa Fluor@488 goat anti-human IgG (H+L) (Lifetechologies, Cat #A11013) was added. […] 250 μL of pre-cooled PBS containing FBS at final concentration 10% was added to each cell to resuspend the cells, and the suspension was centrifuged at 400 g at 4° C. for 5 min; the procedures were repeated twice. 100 μL of pre-cooled PBS was added to each well to resuspend the cells. The plate was analyzed by a flow cytometer (BD, FACSverse) for fluorescence signal values.

[2] = target: T2, monkey CEA expressed on CHO cell surface; assay: FACS, cynoCEA-CHO cells
Experimental: as §1

Binder | EC50 [1] [nM] | EC50 [2] [nM]
Hu103-11 (antibody, human IgG1, lambda) heavy: not shown light: ELVLTQSPSASASLGASVKLTCTLSSQHSTYTIEWYQQQPEKGPRYVMELKKDGSHSTGDGIPDRFSGSSSGAERYLTISSLQSEDEADYYCGVGNTIKEQFVYVFGGGTKLTVLGQPKANPTVTLFPPSSEELQANKATLVCLISDFYPGAVTVAWKADGSPVKAGVETTKPSKQSNNKYAASSYLSLTPEQWKSHRSYSCQVTHEGSTVEKTVAPTECS | 2.71 | 0.92
Hu63-5 (antibody, human IgG1, kappa, V domains shown) VH: EVQLVQSGAEVKKPGASVKVSCKASGYTFTDFYMNWVRQAPGQGLEWMGDIFPKNGNTDYNRKFKDRVTLTVDKSTSTVYMELSSLRSEDTAVYYCARSGYGNYVFDYWGQGTLVTVSS VL: DVQMTQSPSSLSASVGDRVTITCRTSQDINIYLNWYQQKPGKAPKLLIYYRSGLLSGVPSRFSGSGSGTDYTLTISSLQPEDFATYYCQQGNTLPPTFGGGTKVEIKR | 3.7 | 2.14
Hu63-3 (antibody, human IgG1, kappa, V domains shown) VH: EVQLVQSGAEVKKPGASVKVSCKASGYTFTDFYMNWVRQAPGQGLEWMGDIFPKNGNTDYNRKFKDRVTMTRDTSTSTVYMELSSLRSEDTAVYYCARSGYGNYVFDYWGQGTLVTVSS VL: DVQMTQSPSSLSASVGDRVTITCRTSQDINIYLNWYQQKPGGAVKLLIYYRSGLLSGVPSRFSGSGSGTDYTLTISSLQPEDFATYYCQQGNTLPPTFGGGTKVEIKR | 3.56 | 2.01
Hu63-9 (antibody, human IgG1, kappa, V domains shown) VH: EVQLVQSGAEVKKPGASVKVSCKASGYTFTDFYMNWVRQAPGQGLEWIGDIFPKNGNTDYNRKFKDRATLTVDKSTSTVYMEFSSLRSEDTAVYYCARSGYGNYVFDYWGQGTLVTVSS VL: DVQMTQSPSSLSASVGDRVTITCRTSQDINIYLNWYQQKPGGAVKLLIYYRSGLLSGVPSRFSGSGSGTDYTLTISSLQPEDFATYYCQQGNTLPPTFGGGTKVEIKR | 4.87 | 2.47
Hu63-8 (antibody, human IgG1, kappa, V domains shown) VH: EVQLVQSGAEVKKPGASVKVSCKASGYTFTDFYMNWVRQAPGQGLEWIGDIFPKNGNTDYNRKFKDRATLTVDKSTSTVYMEFSSLRSEDTAVYYCARSGYGNYVFDYWGQGTLVTVSS VL: DVQMTQSPSSLSASVGDRVTITCRTSQDINIYLNWYQQKPGKAPKLLIYYRSGLLSGVPSRFSGSGSGTDYTLTISSLQPEDFATYYCQQGNTLPPTFGGGTKVEIKR | 3.24 | 2.43
Hu63-1 (antibody, human IgG1, kappa, V domains shown) VH: EVQLVQSGAEVKKPGASVKVSCKASGYTFTDFYMNWVRQAPGQGLEWMGDIFPKNGNTDYNRKFKDRVTMTRDTSTSTVYMELSSLRSEDTAVYYCARSGYGNYVFDYWGQGTLVTVSS VL: DIQMTQSPSSLSASVGDRVTITCRTSQDINIYLNWYQQKPGKAPKLLIYYRSGLLSGVPSRFSGSGSGTDFTLTISSLQPEDFATYYCQQGNTLPPTFGGGTKVEIKR | 4.23 | –
Hu63-2 (antibody, human IgG1, kappa, V domains shown) VH: EVQLVQSGAEVKKPGASVKVSCKASGYTFTDFYMNWVRQAPGQGLEWMGDIFPKNGNTDYNRKFKDRVTMTRDTSTSTVYMELSSLRSEDTAVYYCARSGYGNYVFDYWGQGTLVTVSS VL: DVQMTQSPSSLSASVGDRVTITCRTSQDINIYLNWYQQKPGKAPKLLIYYRSGLLSGVPSRFSGSGSGTDYTLTISSLQPEDFATYYCQQGNTLPPTFGGGTKVEIKR | 3.73 | –
Hu63-4 (antibody, human IgG1, kappa, V domains shown) VH: EVQLVQSGAEVKKPGASVKVSCKASGYTFTDFYMNWVRQAPGQGLEWMGDIFPKNGNTDYNRKFKDRVTLTVDKSTSTVYMELSSLRSEDTAVYYCARSGYGNYVFDYWGQGTLVTVSS VL: DIQMTQSPSSLSASVGDRVTITCRTSQDINIYLNWYQQKPGKAPKLLIYYRSGLLSGVPSRFSGSGSGTDFTLTISSLQPEDFATYYCQQGNTLPPTFGGGTKVEIKR | 5.18 | 1.95
Hu63-6 (antibody, human IgG1, kappa, V domains shown) VH: EVQLVQSGAEVKKPGASVKVSCKASGYTFTDFYMNWVRQAPGQGLEWMGDIFPKNGNTDYNRKFKDRVTLTVDKSTSTVYMELSSLRSEDTAVYYCARSGYGNYVFDYWGQGTLVTVSS VL: DVQMTQSPSSLSASVGDRVTITCRTSQDINIYLNWYQQKPGGAVKLLIYYRSGLLSGVPSRFSGSGSGTDYTLTISSLQPEDFATYYCQQGNTLPPTFGGGTKVEIKR | 3.71 | 2.88
Hu63-10 (antibody, human IgG1, kappa, V domains shown) VH: EVQLVQSGAEVKKPGASVKVSCKASGYTFTDFYMNWVRQAPGQGLEWIGDIFPKNGNTDYNRKFKDKATLTVDKSTSTVYMEFRSLRSEDTAVYYCARSGYGNYVFDYWGQGTLVTVSS VL: DIQMTQSPSSLSASVGDRVTITCRTSQDINIYLNWYQQKPGKAPKLLIYYRSGLLSGVPSRFSGSGSGTDFTLTISSLQPEDFATYYCQQGNTLPPTFGGGTKVEIKR | 4.95 | 1.88

Next, values leading:

EC50 [1] [nM] | EC50 [2] [nM] | Binder
1.91 | 1.18 | Hu103-3 (antibody, human IgG1, lambda) heavy: not shown light: ELVLTQSPSASASLGASVKLTCTLSSQHSTYTIEWYQQQPEKGPRYVMELKKDGSHSTGDGIPDRFSGSSSGAERYLTISSLQSEDEADYYCGVGNTIKEQFVYVFGGGTKLTVLGQPKANPTVTLFPPSSEELQANKATLVCLISDFYPGAVTVAWKADGSPVKAGVETTKPSKQSNNKYAASSYLSLTPEQWKSHRSYSCQVTHEGSTVEKTVAPTECS
2.37 | 2.49 | Hu103-1 (antibody, human IgG1, lambda, V domains shown) VH: EVQLVQSGSELKKPGASVKVSCKASGYTFTTYGVIWVRQAPGQGLEWMGWINTYSGVPTYADDFKGRFVFSLDTSVSTAYLQISSLKAEDTAVYYCARKKTLTTVTPWFAYWGQGTLVTVSS VL: ELVLTQSPSASASLGASVKLTCTLSSQHSTYTIEWHQQQPEKGPRYLMELKKDGSHSTGDGIPDRFSGSSSGAERYLTISSLQSEDEADYYCGVGNTIKEQFVYVFGGGTKLTVLG
2.18 | 1.26 | Hu103-2 (antibody, human IgG1, lambda, V domains shown) VH: EVQLVQSGSELKKPGASVKVSCKASGYTFTTYGVIWVRQAPGQGLEWMGWINTYSGVPTYADDFKGRFVFSLDTSVSTAYLQISSLKAEDTAVYYCARKKTLTTVTPWFAYWGQGTLVTVSS VL: ELVLTQSPSASASLGASVKLTCTLSSQHSTYTIEWYQQQPEKGPRYLMELKKDGSHSTGDGIPDRFSGSSSGAERYLTISSLQSEDEADYYCGVGNTIKEQFVYVFGGGTKLTVLG
4.35 | 2.29 | Hu63-11 (antibody, human IgG1, kappa, V domains shown) VH: EVQLVQSGAEVKKPGASVKVSCKASGYTFTDFYMNWVRQAPGQGLEWIGDIFPKNGNTDYNRKFKDKATLTVDKSTSTVYMEFRSLRSEDTAVYYCARSGYGNYVFDYWGQGTLVTVSS VL: DVQMTQSPSSLSASVGDRVTITCRTSQDINIYLNWYQQKPGKAPKLLIYYRSGLLSGVPSRFSGSGSGTDYTLTISSLQPEDFATYYCQQGNTLPPTFGGGTKVEIKR
4.04 | 2.23 | Hu63-12 (antibody, human IgG1, kappa, V domains shown) VH: EVQLVQSGAEVKKPGASVKVSCKASGYTFTDFYMNWVRQAPGQGLEWIGDIFPKNGNTDYNRKFKDKATLTVDKSTSTVYMEFRSLRSEDTAVYYCARSGYGNYVFDYWGQGTLVTVSS VL: DVQMTQSPSSLSASVGDRVTITCRTSQDINIYLNWYQQKPGGAVKLLIYYRSGLLSGVPSRFSGSGSGTDYTLTISSLQPEDFATYYCQQGNTLPPTFGGGTKVEIKR
